Data reported in patent publication EP3470426A1.

Biological target: T1, mouse CD137-Fc chimeric protein (mouse), P20334
T1 chain: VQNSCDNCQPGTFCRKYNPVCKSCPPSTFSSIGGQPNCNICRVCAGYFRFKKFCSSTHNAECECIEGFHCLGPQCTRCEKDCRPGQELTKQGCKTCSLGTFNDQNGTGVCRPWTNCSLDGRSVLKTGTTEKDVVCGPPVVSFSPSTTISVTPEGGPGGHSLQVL
Assay: SPR, CD137-Fc captured, binder injected
Details: remark: other sources report otherwise

B1: PRO963 (protein)
chain: DIQMTQSPSSLSASVGDRVTITCQASQSINDYLAWYQQKPGKAPKLLIYKASTLASGVPSRFSGSGSGTDFTLTISSLQPEDFATYYCQQGYIITDIDNVFGTGTKVTVLGGGGGSQVQLQESGPGLVKPSETLSLTCKVSGFSFSNSYWICWIRQPPGKGLEWIGCTFVGSSDSTYYANWAKGRVTISVDSSKNQFSLKLSSVTAADTAVYYCARHPSDAVYGYANNLWGQGTLVTVSSGGGGSGGGGSGGGGSGGGGSIQMTQSPSSLSASVGDRVTITCQASQSINNVLAWYQQKPGKAPKLLIYRASTLASGVPSRFSGSGSGTDFTLTISSLQPEDFATYYCQSSYGNYGDFGTGTKVTVLGGGGGSQVQLQESGPGLVKPSETLSLTCKVSGFSFSSGYDMCWIRQPPGKGLEWIGCVVAGSVDITYYASWAKGRVTISVDSSKNQFSLKLSSVTAADTAVYYCARKDAYSDAFNLWGQGTLVTVSSGGGGSGGGGSIQMTQSPSSLSASVGDRVTITCQSSESVYSNNQLSWYQQKPGQPPKLLIYDASDLASGVPSRFSGSGSGTDFTLTISSLQPEDFATYYCAGGFSSSSDTAFGGGTKLTVLGGGGGSGGGGSGGGGSGGGGSEVQLVESGGGLVQPGGSLRLSCAASGFSLSSNAMGWVRQAPGKGLEYIGIISVGGFTYYASWAKGRFTISRDNSKNTVYLQMNSLRAEDTATYFCARDRHGGDSSGAFYLWGQGTLVTVSS
B1 gave a Kd of 170 nM, a koff of 0.059 s⁻¹ and a kon of 350000 M⁻¹ s⁻¹.
